Sequences and labels used below:
B1: 3F11hz0 (antibody, V domains shown)
VH: EVQLVESGGGLVQPKGSLKLSCAASGFSFNTYAMNWVRQAPGKGLEWVARIRSKSNYYATYYADSVKDRFTISRDDSESMLYLQMNNLKTEDTAMYYCVRGRELGDYYAMDYWGQGTSVTVSS
VL: DIVMTQAAPSVPVTPGESVSISCRSSKSLLHSNGNTYLYWFLQRPGQSPQLLIYRMSNLASGVPNRFSGSGSGTAFTLRISRVEAEDVGVYYCMQHLEYPFTFGSGTKLEIK
notes: same VH and VL as mouse 3F11
B2: 3O20hz0 (antibody, V domains shown)
VH: EVQLVESGGGLVQPKGSLKLSCATSGFSFNAYAMNWVRQAPGKGLEWVGRIRSKSNNYATYYADSVKGRFTISRDDSKTILYLQMNTLKTEDTAIYYCVRGGYHGNSAYFDVWGTGTSVTVSS
VL: B1 VL with N65D, M94L
notes: same VH and VL as mouse 3O20
B3: 3F11hz2 (antibody, V domains shown)
VH: EVQLVESGGGLVQPGGSLKLSCAASGFSFNTYAMNWVRQASGKGLEWVGRIRSKSNYYATYYAASVKGRFTISRDDSKNTAYLQMNSLKTEDTAVYYCVRGRELGDYYAMDYWGQGTLVTVSS
VL: DIVMTQSPLSLPVTPGEPASISCRSSKSLLHSNGNTYLDWFLQKPGQSPQLLIYRMSNRASGVPDRFSGSGSGTDFTLKISRVEAEDVGVYYCMQHLEYPFTFGQGTKLEIK
notes: Humanized variant of 3F11
B4: 3O20hz3 (antibody, V domains shown)
VH: B2 VH with K15G, N35H, P41S, Y61A, D64A, I80T, T87S, I95V, T115Q, S118L
VL: B3 VL with N33Q, M94L
notes: Humanized variant of 3O20
B5: 3O20hz1 (antibody, V domains shown)
VH: EVQLVESGGGLVQPGGSLKLSCAASGFSFNAYAMHWVRQASGKGLEWVGRIRSKSNNYATAYAASVKGRFTISRDDSKNTAYLQMNSLKTEDTAVYYCVRGGYHGNSAYFDVWGQGTLVTVSS
VL: B3 VL with F41Y, M94L
notes: Humanized variant of 3O20
B6: 1G17hz0 (antibody, V domains shown)
VH: QVQLQQSGAELVRPGASVTLSCKASGYTFADYEMHWVKQTPVLGLEWIGAIDPETGRTAYNQKFKFKATLTADRSSSTAYMELRSLTSEDSAVYYCTRRAYWGGWGQGTTLTVSS
VL: DVVMTQTPLSLPVSLGDQASISCRSSQSLVHSSGNTYLHWYLQKPGQSPKLLIYKVSNRFSGVPDRFSGSGSGTDFTLKISRVEAEDLGVYFCSQSTHVPYTFGGGTKLEIK
notes: same VH and VL as mouse 1G17
B7: 1G17hz2 (antibody, V domains shown)
VH: QVQLVQSGAEVKKPGASVKVSCKASGYTFADYEMHWVRQAPGQGLEWIGIIDPETGRTSYAQKFQGRATLTADRSTSTAYMELSSLRSEDTAVYYCTRRAYWGGWGQGTLVTVSS
VL: DVVMTQSPLSLPVTLGQPASISCRSSQSLVHSSGNTYLNWYQQRPGQSPRLLIYKVSNRDSGVPDRFSGSGSGTDFTLKISRVEAEDVGVYFCSQSTHVPYTFGQGTKLEIK
notes: Humanized variant of 1G17
B8: 101E4 (antibody, V domains shown)
VH: EVQLVESGGGLVQPKGSLKLSCAASGFSFNPYAMNWVRQGPGKGLEWVARIRSKSNNYATYYADSVKDRFTISRDDSENILYLQMNNLKTEDTAMYYCVRDYYGGRSSIGMDYWGHGTSVTVSS
VL: B1 VL with N65D, M94L, S105G, I111L
notes: Mouse hybridoma monoclonal antibody (SJL mice); detected with anti-mouse IgG
B9: 3F11 (antibody, V domains shown)
VH: B1 VH
VL: B1 VL
notes: Mouse hybridoma monoclonal antibody
B10: 118H1 (antibody, V domains shown)
VH: B8 VH with G40A, V48I, T60A, N86K, K89I, G105T, S107P, H116R
VL: B1 VL with V3A, P12F, K27Q, Q47R, N65D, A75G, S105A, I111L
notes: Mouse hybridoma monoclonal antibody; also called 1181H1
B11: 3F6 (antibody, V domains shown)
VH: EVQFVESGGGLVQPKGSLKLSCAASGFSFNTYAMNWVRQAPGKGLEWVARIRTKSNNYATHYADSVKDRFIVSRDDSENILYLQMNNLKTEDTGMYYCVRGGNGIYGRNAMDNWGQGTSVTVSS
VL: B1 VL with T14S, N33S, N65D, S105G
notes: as for B9
B12: 3O20 (antibody, V domains shown)
VH: B2 VH
VL: B1 VL with N65D, M94L
notes: as for B9
B13: 4M13 (antibody, V domains shown)
VH: B1 VH with I51M, Y57N, R102K, E103D, L104T, G105S, D106G, Y107S, T120S
VL: B1 VL with Q50H, N65D, R82K, A85T
notes: as for B9
B14: 2L15 (antibody, V domains shown)
VH: B1 VH with Y57N, D75A, R102K, E103D, L104I, G105S, D106V, Y107S
VL: B1 VL with L30Q, N65D, A85T
notes: as for B9
B15: 4G19 (antibody, V domains shown)
VH: B11 VH with K67T, N79S, I80M, L81T, A110T
VL: B1 VL with A7T, T14S, N33S, N65D, S105G, K112Q
notes: as for B9
B16: 103G4 (antibody, V domains shown)
VH: B8 VH with Q13R, M34L, G40A, R100K, G105T, S107P, H116Q
VL: B1 VL with K27R, Q50H, N65D, S105A, I111L
notes: as for B9
B17: 4D24 (antibody, V domains shown)
VH: EVQLVESGGGLVQPKGSLKLSCAASGFSFNPYAMNWVRQSPGKGLEWVARIRSKSNNYATYYADSVKDRFTISRDDSESMLYLQMNNLKTEDTAMYYCVRQGWVKRYFDVWGTGTTVTVSS
VL: GNVLTQSPAIMSASPGEKVTMTCSASSSGTYMHWYQQKSTTSPKLWIYDTSKLASGVPGRFSGSGSGNSYSLTISSMEAEDIATYYCFQGSGYPLTFGSGTKLEIK
notes: as for B9
B18: 172E7 (antibody, V domains shown)
VH: EVQLQQSGPVLVKPGASVKMSCKASGYTFTDNYMNWMKQSHGKTLEWIGVINPYNGVTRYNQKFRDKATLTVDKSSSTAYMDLNSLTSEDSAVYYCSNSLSWGPGTSLTVSS
VL: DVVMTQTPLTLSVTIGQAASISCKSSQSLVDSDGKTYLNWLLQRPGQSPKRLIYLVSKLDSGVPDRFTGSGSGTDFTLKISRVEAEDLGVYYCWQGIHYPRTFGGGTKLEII
notes: as for B9
B19: 170G6 (antibody, V domains shown)
VH: B18 VH with M37V, T44S, D66G, V72A, Y80F, S107T
VL: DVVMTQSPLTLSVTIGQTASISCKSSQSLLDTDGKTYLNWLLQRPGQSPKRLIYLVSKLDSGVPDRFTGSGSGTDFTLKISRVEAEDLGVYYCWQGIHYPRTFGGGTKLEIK
notes: as for B9
B20: 1G17 (antibody, V domains shown)
VH: B6 VH
VL: B6 VL
notes: as for B9
B21: 3C11 (antibody, V domains shown)
VH: EFQLQQSGPELVKPGASVKISCKTSGYSFTDYNINWVKQSNGKSLEWIGLINPNHGTTKSNQKFKGKATLTVDQSSSTAYMQLSSLTSEDSAVYYCARHDYDGAYWGQGTLVTVSA
VL: B6 VL with V30I, S33N, V56I, H98R, V99A, Y101W
notes: as for B9
B22: 2P15 (antibody, V domains shown)
VH: B1 VH with T31A, I51M, G101Q, R102T, E103Y, L104G, G105S, D106K, Y107D
VL: B6 VL with S33N, L38F, Y101F, G105S
notes: as for B9
B23: 84B4 (antibody, V domains shown)
VH: EVQLQQSGPVLVKPGASVKMSCKASGFTITDYYFNWVKQSHGKSLEWIGIINPYNGVARYKQKFKGKATLTVDKSSSTVYLEFSGLTSEDSAVYYCVRFVYGTTYDYAMDYWGQGTSVTVSS
VL: B6 VL with V3L, L29I, S33N, H39E, L42V, F92Y, S94F, S96G, T97S, Y101P
notes: as for B9

Residue numbers refer to the chain shown, from its start.

The target of one assay is T1, human CCR8 (human, UniProt P51685 1-355).
T1 construct: whole, on cells; also called hCCR8; C-C Motif Chemokine Receptor 8
T1 sequence (P51685 whole entry): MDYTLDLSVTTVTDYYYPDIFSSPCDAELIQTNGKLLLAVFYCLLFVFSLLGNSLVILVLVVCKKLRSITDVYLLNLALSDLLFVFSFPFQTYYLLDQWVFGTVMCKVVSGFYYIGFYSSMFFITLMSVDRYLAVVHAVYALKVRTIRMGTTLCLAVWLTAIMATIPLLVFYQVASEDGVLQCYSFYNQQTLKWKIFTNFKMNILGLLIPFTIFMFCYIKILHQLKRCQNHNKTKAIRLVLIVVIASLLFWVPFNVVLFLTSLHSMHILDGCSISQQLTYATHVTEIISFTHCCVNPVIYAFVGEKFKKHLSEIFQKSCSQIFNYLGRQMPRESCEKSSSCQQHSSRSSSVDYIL
Kind of assay: FACS on human CCR8-expressing 293F cells.
Turning to B1, the EC50 turned out to be 0.309 nM.
B2 showed an EC50 of 0.185 nM.
B3 showed an EC50 of 98.5 nM.
With B4, a half-maximal response (EC50) required 241 nM.
In turn, B5 registered an EC50 of 508 nM.
For B6, the EC50 turned out to be 0.451 nM.
The molecule B7 displayed an EC50 of 333 nM.

For a further assay, the target named is T1, human CCR8. Briefly: FACS on 293F-CCR8 cells. On the procedure:
The affinity of anti-CCR8 antibodies was evaluated by FACS. […] Affinity analyses were generally carried out as follows. […] The test antibodies were diluted with PBS/0.5 BSA (1:3 series dilution from 225 μg/mL to 0.00381 μg/mL). The transfected cells along with parent non-transfected cells were distributed into 96-well round-bottom polystyrene plates and incubated with the diluted antibodies on ice for 20-30 minutes. Next, the samples were washed with PBS/0.5 BSA and the cells were centrifuged. The pelleted cell samples were incubated with the second antibody of anti-mouse IgG-FITC-at 1:300 dilution in 100 μL PBS/0.5% BSA on ice for 30 minutes, and then washed with PBS/0.5% BSA, followed by pelleting the cells. The cell pellets were re-suspended in PBS/0.5% BSA for reading, and samples were analyzed using CYTOFLEX (Beckman).
In turn, B8 gave an EC50 of 0.409 nM.
On to B9, for which it took 0.957 nM to reach a half-maximal effect (EC50).
The same measure, in the same setting: for B10 the value was 0.466 nM; for B11, 2.29 nM; for B12, 1.29 nM.
As for B13, the 50% effective concentration (EC50) is 0.775 nM. This EC50 is about 1.7-fold lower than that of the molecule before.
The molecule B14 had a 50% effective concentration (EC50) of 0.826 nM.
On the same count and under the same terms, next, B15: 4.49 nM; B16: 20.6 nM; B17: 0.888 nM.
Molecule B18 yielded an EC50 of 6.99 nM.
As to B19, the EC50 came to 0.302 nM.
Same read-out and setting: for B20 the value was 2.94 nM; for B21, 4.25 nM.
Molecule B22 showed an EC50 of 0.305 nM.
In turn, B23 showed an EC50 of 0.195 nM.

Another assay concerns the target T1, human CCR8. Kind of assay: cell-based or functional assay.
B8: the “Tango IC50” value came out at 0.27 nM.
On to B9, for which the “Tango IC50” value came out at 0.27 nM.
As for B10, the “Tango IC50” value turned out to be 1.43 nM.
Turning to B11, the “Tango IC50” value amounted to 0.51 nM.
For B12, the “Tango IC50” value amounted to 0.45 nM.
On to B13, for which the “Tango IC50” value came to 0.47 nM.
Same read-out and setting: next, B14: 1.23 nM.
For B15, the “Tango IC50” value amounted to 2.61 nM.
On to B16, for which the “Tango IC50” value came to 0.83 nM.
B17: the “Tango IC50” value was 0.67 nM.
As for B18, the “Tango IC50” value came to 2.01 nM.
For the molecule B19, the “Tango IC50” value was 0.33 nM.
In the case of B20, the “Tango IC50” value amounted to 1.82 nM.
Consider B21, for which the “Tango IC50” value came out at 4.08 nM.
Regarding B22, the “Tango IC50” value amounted to 1.87 nM.
On the same count and under the same terms, for B23 the value was 1.86 nM.

The term EC50 denotes the concentration that produces a half-maximal response. Lower therefore signals a more potent agent.

Values taken from patent US20240352134A1 (NANJING IMMUNOPHAGE BIOTECH, published 2024).
